What was measured:
[1] = Glycan array, 9-O-acetylated GcSTn; assay type: binding; conditions: glycan microarray, Cy3 anti-mouse IgG
Method: Optimized glycan arrays comprise 71 chemically synthesized and well-defined glycans, most of which comprise Neu5Ac and Neu5Gc glycan pairs.
300 ml of epoxy blocking buffer is prepared by combining 15 ml of 2 M Tris buffer (pH 8) with 0.9 ml of 16.6 M ethanolamine and 284.1 ml of distilled water. The solution was brought to a final pH of 9.0 with HCl. The solution is filtered using a 0.2 μM nitrocellulose membrane. The epoxy buffer solution as well as 1 L of distilled water are pre-warmed to 50° C. Glass slides are arranged in a slide holder and quickly submerged in a staining tub with the warmed epoxy blocking buffer. Slides are incubated in the epoxy blocking buffer for 1 hour at 50° C. with periodic shaking to deactivate epoxy binding sites. Next, slides are rinsed and blocked with PBS with 1% OVA at 25° C. for one hour. Serum samples with polyclonal antibodies (1:1000) or purified monoclonal antibodies (1 ug/mL), are diluted in PBS with 1% OVA and added to the glycan array for one hour at 25° C. After extensive washing, binding of antibodies are detected by incubating glycan microarray slides with Cy3-conjugated anti-mouse IgG (Jackson Immunoresearch, West Grove, Pa.) for one hour. Slides are then washed extensively, dried and scanned with a Genepix 4000B scanner (Laser at 100%; gain at 350; 10 μm pixels). […]

[2] = E3-STn allograft model, pathological evaluation of H&E stained organs; assay type: in vivo, mouse; conditions: 5 treated mice
Method: At the end of the study described in Example 22, three mice from the vehicle control group and five mice that received 7G9-1A8 were chosen at random for post-study pathology assessment. Brain, colon, intestine, heart, kidney, liver, lung, mandibular salivary gland, pancreas, spleen, stomach, adrenal gland and thyroid gland organs were collected from each mouse. The organs were fixed in formalin (VWR; Radnor, Pa.) for about 48 hours, transferred to 70% ethanol (Sigma-Aldrich; St.Louis, Mo.), and then processed for standard H&E staining.
The H&E stained tissue slides were examined for pathology review. Liver sections from each animal had multifocal inflammation with or without concomitant hepatocellular necrosis. The histo-pathological changes were minimal to mild in severity. There was no appreciable difference in the morphology of lesions among vehicle control group mice and mice that received 7G9-1A8.

[3] = E3-STn allograft model, complete blood count (CBC); assay type: in vivo, mouse; design: White blood cells Level: unit not given here; conditions: CBC at end of study, 5 mice
Method: At the end of the study, a complete blood count (CBC) was obtained for 5 mice treated with antibody as well as 3 mice treated with vehicle control. Blood was collected from all mice via terminal cardiac puncture and processed for plasma. Blood was placed in EDTA microtainer tubes (BD & Co., Franklin Lakes, N.J.) then centrifuged. Plasma layers were then removed and snap frozen in cryo vials (Thermo-Fisher Scientific, Rochester, N.Y.) and stored at −80° C. until analysis. Analysis was carried out to look for levels of a variety of factors.

[4] = MDA-MB-231-STn xenograft model, percent body weight change; assay type: in vivo, mouse; conditions: 5 mg/kg i.p. once weekly
From the text: To evaluate antibody drug conjugates (ADCs) as single agents in an MDA-MB-231-STn Human Breast Tumor Xenograft model, 40 ICR SCID female mice age range 6-8 weeks were randomly separated into four separate groups, one vehicle control and three ADC treatments, then maintained individually with food/water ad libitum (see the following Table).
Animals were inoculated in the subcutaneous right flank with 5×10^6 breast tumor cells (MDA-MB-231-STn) in matrigel, mean tumor size was 175-225 mm^3 at study initiation. Animals were given either vehicle or antibody drug conjugates (5 mg/kg) by intraperitoneal injection once weekly. Tumor volume and percent body weight change were determined once weekly until study termination. The study was terminated when the tumor in the vehicle control animal reached a mean tumor weight ≥1500 mm^3. SE refers to “standard error.”

MDA-MD-231 STn+ cells = experiment: Fluorescence microscopy of ALEXA FLUOR 488-S3F binding and internalization, STn+ cells; assay type: cell-based, human
Method: To analyze the internalization of antibodies by fluorescence microscopy, the following procedure was carried out. MDA-MD-231 STn− cells and MDA-MD-231 STn+ cells were cultured in Eagles minimum essential medium containing 10% fetal calf serum, 100 μg/ml penicillin, 100 UI/ml streptomycin, 45 μg/ml gentamycin, as well as 1 mg/ml G418 for STn+ cells. Cells were sub-cultured by treatment with Accutase buffer and seeded in microscope chamber slides at 10,000 cells/chamber in the case of STn− cells and 20,000 cells/chamber in the case of STn+ cells. All cells were cultured overnight at 37° C. Cells were subsequently incubated with either 1.5, 5 or 10 μg/ml S3F conjugated with ALEXA FLUOR® 488 dye (Thermo Fisher Scientific, Pittsburgh, Pa.) in complete media at 4° C. for 1 hour. Cells were then washed with ice-cold PBS in order to remove antibodies that were not bound to the cell surface. Complete media was then administered to each chamber and the cells were incubated at 37° C. for either 0, 15, 30 or 60 minutes in order to allow internalization of any surface-bound antibodies.
Following each time point, cells were washed twice with PBS in order to remove unbound antibodies. […] Cells were visualized the following day by analysis on a Nikon Eclipse Ti fluorescence microscope.

B1: 18C7: anti-STn mouse monoclonal, IgG2c κ, from mouse #4436; VH SEQ ID NO: 4, VL SEQ ID NO: 5 (antibody, V domains shown)
VH: QVTLKESGPGILQPSQTLSLTCSFSGFSLSTFGMGVGWIRQPSGKGLEWLAHIWWDDDKYYNPALKSRLTISKDTSKNQVFLKIANVDTADTATYYCARIAYYYGSERDYWGQGTTLTVSS
VL: QIVLTQSPAIMSASPGEKVTMTCSASSSISYMHWYHQKPGTSPKRWIYDTSKLASGVPARFSGSGSGTSYSLTISSMEAEDAATYYCHQRSSYTFGGGTKLEIKR
- mean fluorescence intensity, Neu5,9Ac5Gc-α2,6-GalNAc [1]: about 2,000

B2: 7G9: anti-STn mouse monoclonal, IgG2b κ, from mouse #4407; VH SEQ ID NO: 12, VL SEQ ID NO: 9 (antibody, V domains shown)
VH: QVQLKESGPGLVAPSQNLSITCTVSGFSLTSYGVNWVRQPPGKGLEWLGVIWGDGSTNYHSALISRLIISKENSKSQVFLKLNSLQTNDTATYYCTKGFVYWGQGTLVTVSA
VL: QIVLTQSPAIMSASPGEKVTMTCSASSSVSYMHWYQQKSGTSPKRWIFDTSKLASGVPARFSGSGSGTSYSLTISSMEAEDAATYYCQQWSSNLLTFGAGTKLELK
- epicardial inflammation [2]: not observed
- neutrophil aggregates in the muscularis mucosa of the stomach [2]: not observed
- liver histopathology (multifocal inflammation, hepatocellular necrosis) vs vehicle control ([2]; 3 vehicle mice): no significant difference between the groups
- % Lymphocytes Level [3]: 44.4%
- % Monocytes Level [3]: 4.6%
- % Neutrophils (Segmented) Level [3]: 51.0%
- Hematocrit Level [3]: 46.9%
- Hemoglobin Level [3]: 16.0 g/dL
- Lymphocytes Level [3]: 5.6 10^9/L
- Mean Corpuscular Hemoglobin Concentration Level [3]: 34.2 g/dL
- Mean Corpuscular Hemoglobin Level [3]: 16.2 pg
- Mean Corpuscular Volume Level [3]: 47.4 fL
- Mean platelet volume Level [3]: 7.4 fL
- Monocytes Level [3]: 0.7 10^9/L
- Neutrophils Level [3]: 7.6 10^9/L
- Platelet Cell Distribution Width Level [3]: 32.2%
- Platelet count Level [3]: 712.2 10^3
- Red Cell Distribution Width Level [3]: 19.0%
- Red blood cells Level [3]: 9.9 10^6/L
- White blood cells Level [3]: 13.9

B3: S3F: 3F1 variable domains combined with IgG2a constant domains; heavy chain SEQ ID NO: 63, light chain SEQ ID NO: 64 (antibody)
heavy: QVQLQQSDAELVKPGASVKISCKASGYTFTDHAIHWVKQKPEQGLDWIGYISPGNGDIKYNEKFKDKVTLTADKSSSTACMHLNSLTSEDSAVYFCKRSLLALDYWGQGTTLTVSSAKTTAPSVYPLAPVCGDTTGSSVTLGCLVKGYFPEPVTLTWNSGSLSSGVHTFPAVLQSDLYTLSSSVTVTSSTWPSQSITCNVAHPASSTKVDKKIEPRGPTIKPCPPCKCPAPNLLGGPSVFIFPPKIKDVLMISLSPIVTCVVVDVSEDDPDVQISWFVNNVEVHTAQTQTHREDYNSTLRVVSALPIQHQDWMSGKEFKCKVNNKDLPAPIERTISKPKGSVRAPQVYVLPPPEEEMTKKQVTLTCMVTDFMPEDIYVEWTNNGKTELNYKNTEPVLDSDGSYFMYSKLRVEKKNWVERNSYSCSVVHEGLHNHHTTKSFSRTPGK
light: DIVMTQSHKFMSTSVGDRVSITCKASQDVGTNIAWYQQKPGRSPKVLIYSASTRHTGVPDRFTGSGSGTDFTLTISNVQSEDLTDYFCQQYSSFPLTFGVGTKLELKRADAAPTVSIFPPSSEQLTSGGASVVCFLNNFYPKDINVKWKIDGSERQNGVLNSWTDQDSKDSTYSMSSTLTLTKDEYERHNSYTCEATHKTSTSPIVKSFNRNEC
- body weight at study termination [4]: overall increase in body weight
- Percent Body Weight Change ([4]; study day 1): 0%
- Percent Body Weight Change ([4]; study day 4): −0.01%
- Percent Body Weight Change ([4]; study day 8): −1.29%
- Percent Body Weight Change ([4]; study day 10): −1.36%
- Percent Body Weight Change ([4]; study day 15): −1.09%
- Percent Body Weight Change ([4]; study day 18): −0.51%
- Percent Body Weight Change ([4]; study day 23): 1.49%
- Percent Body Weight Change ([4]; study day 25): 2.17%
- internalization by STn+ cells (MDA-MD-231 STn+ cells; 37° C. 15-60 min, acid wash): capable of being internalized by STn+ cells
- binding to the surface of STn+ cells (MDA-MD-231 STn+ cells; 488-S3F conjugate at 1.5, 5, 10 μg/ml, 4° C.): binds the surface of STn+ cells

Source: patent US20180280504A1, “GLYCAN-INTERACTING COMPOUNDS AND METHODS OF USE” (SIAMAB THERAPEUTICS, INC., priority 2014, published 2018)
